Molecular target: inactivated SARS-CoV preparation (Frankfurt 1 strain), gamma-irradiated

B1: single-chain phage antibody SC03-012 (scFv)
scFv: AMAQVQLVQSGAEVKKPGASVKVSCKASGYTFTSYGISWVRQAPGQGLEWMGWISAYNGNTNYAQKLQGRVTMTTDTSTSTAYMELSSLRSDDTAVYYCARMFRKSSFDSWGQGTLVTVSRGGGGSGGGGSGGGGSSELTQDPAVSVALGQTVRITCQGDSLRSYYASWYQQKPGQAPVLVIYGKNNRPSGIPDRFSGSSSGNTASLTITGAQAEDEADYYCNSRDSSGNHVVFGGGTKLTVLGAAA
Work on B1 yielded an OD492 nm of 0.495 OD492 nm.

B2: single-chain phage antibody SC03-015 (scFv)
scFv: AMAEVQLVESGGGVVRPGGSLRLSCAASGFTFDDYGMSWVRQAPGKGLEWVSGINWNGGSTGYADSVKGRFTISRDNAKNSLYLQMNSLRAEDTAVYYCARGLSLRPWGQGTLVTVSRGGGGSGGGGSGGGGSSELTQDPAVSVALGQTVRITCQGDSLRSYYASWYQQKPGQAPVLVIYGKNNRPSGIPDRFSGSSSGNTASLTITGAQAEDEADYYCNSRDSSGNHVVFGGGTKLTVLGAAA
B2 showed an OD492 nm of 0.796 OD492 nm.

B3: single-chain phage antibody SC03-006 (scFv)
scFv: SMAEVQLVESGGGLVQPGGSLRLSCAASGFTFSGYPMHWVRQAPGKGLEWVAVISYDGSNKYYADSVKGRFTISRDNSKNTLYLQMNSLRAEDTAVYYCAKDGSPRTPSFDYWGQGTLVTVLEGTGGSGGTGSGTGTSELDIQMTQSPHSLSASVGDRVTITCRASQGISNYLAWYQQKPGKVPKLLIYAASTLQSGVPSRFSGSGSGTDFTLTISSLQPEDVGVYYCQQRFRTPVTFGQGTKLEIKRAAA
B3 showed an OD492 nm of 1.06 OD492 nm.
